Results: US20120275996A1 (AbbVie / Abbott, published 2012)

T1: human IL-1α (human, UniProt P01583 113-271)
T1 construct: also called hIL-1α; recombinant purified human IL-1α
T1 sequence: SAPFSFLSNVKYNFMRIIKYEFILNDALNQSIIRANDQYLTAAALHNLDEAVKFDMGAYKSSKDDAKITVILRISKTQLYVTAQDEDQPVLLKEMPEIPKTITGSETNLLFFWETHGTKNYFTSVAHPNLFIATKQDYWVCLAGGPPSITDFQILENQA

T2: cynomolgus IL-1α (cynomolgus, UniProt P79340 113-271, limits assumed)
T2 sequence (looked up): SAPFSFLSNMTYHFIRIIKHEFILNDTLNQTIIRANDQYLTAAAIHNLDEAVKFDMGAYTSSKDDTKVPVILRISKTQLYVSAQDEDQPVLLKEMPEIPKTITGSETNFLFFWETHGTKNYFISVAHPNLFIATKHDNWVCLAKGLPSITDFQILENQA


Tests used:
human IL-1α [1] = target: T1, human IL-1α; assay: SPR (Biacore 3000), antibody captured, antigen in solution, 25 °C
Method: (§1) The BIACORE assay (Biacore, Inc, Piscataway, N.J.) determines the affinity of antibodies with kinetic measurements of on-, off-rate constants. Binding of antibodies to recombinant purified human IL-1α and cynomolgus IL-1α was determined by surface plasmon resonance-based measurements with a Biacore® 3000 instrument (Biacore® AB, Uppsala, Sweden) using running HBS-EP (10 mM HEPES [pH 7.4], 150 mM NaCl, 3 mM EDTA, and 0.005% surfactant P20) at 25° C. All chemicals were obtained from Biacore® AB (Uppsala, Sweden) or otherwise from a different source as described in the text. Approximately 5000 RU of goat anti-mouse IgG, (Fcγ), fragment specific polyclonal antibody (Pierce Biotechnology Inc, Rockford, Ill.) diluted in 10 mM sodium acetate (pH 4.5) was directly immobilized across a CM5 research grade biosensor chip using a standard amine coupling kit according to manufacturer's instructions and procedures at 25 μg/ml. Unreacted moieties on the biosensor surface were blocked with ethanolamine. Modified carboxymethyl dextran surface in flowcell 2 and 4 was used as a reaction surface. Unmodified carboxymethyl dextran without goat anti-mouse IgG in flow cell 1 and 3 was used as the reference surface. For kinetic analysis, rate equations derived from the 1:1 Langmuir binding model were fitted simultaneously to association and dissociation phases of all eight injections (using global fit analysis) with the use of Biaevaluation 4.0.1 software. Purified antibodies were diluted in HEPES-buffered saline for capture across goat anti-human IgG specific reaction surfaces. Antibodies to be captured as a ligand (25 μg/ml) were injected over reaction matrices at a flow rate of 5 μl/minute. The association and dissociation rate constants, kₒₙ (unit M⁻¹s⁻¹) and koff (unit s⁻¹) were determined under a continuous flow rate of 25 μl/min Rate constants were derived by making kinetic binding measurements at ten different antigen concentrations ranging from 10-200 nM. The equilibrium dissociation constant (unit M) of the reaction between antibodies and the target antigen was then calculated from the kinetic rate constants by the following formula: KD=koff/kₒₙ. Binding is recorded as a function of time and kinetic rate constants are calculated. In this assay, on-rates as fast as 10⁶M⁻¹s⁻¹ and off-rates as slow as 10⁻⁶ s⁻¹ can be measured.

human IL-1α [2] = target: T1, human IL-1α; assay: ELISA; antibody captured by anti-human Fc, biotinylated antigen titrated
Method: Plates were washed five times in washing buffer (PBS containing 0.05% Tween 20), and blocked for 1 hour at 25° C. with 200 μl per well superblock blocking buffer (Thermo scientific, #37515). Blocking buffer was removed by tapping plates, and 2 μg/ml of each antibody in PBS containing 10% superblock, 0.5% tween-20 was added to the wells at 100 μl per well and incubated at 25° C. for 1 hour. The wells were washed five times in 1×PBST, and 1 μg/ml biotinylated antigen was titrated at 1:6 serial dilutions (for a range of μg to pg in PBS containing 10% superblock, 0.05% Tween 20). Each dilution of antigen was then added to the plates and incubated for 1 hour at 25° C. The wells were washed five times in 1XPBST and incubated for 1 hour at […]. with polyHRP streptavidin (KPL #474-3000, Gaithersburg, Md.). The wells were washed five times in 1XPBST, and 100 μl of ULTRA-TMB ELISA (Pierce, Rockford, Ill.) were added per well. Following color development the reaction was stopped with 1N HCL and absorbance at 450 nm is measured. The results are shown in Table 11 and the numerical value indicates binding of human anti-IL-1a antibodies to human IL-1α.

cynomolgus IL-1α [3] = target: T2, cynomolgus IL-1α; assay: cell-based or functional assay
human IL-1α [4] = target: T1, human IL-1α; assay: cell-based or functional assay
cynomolgus IL-1α [5] = target: T2, cynomolgus IL-1α; assay: SPR (Biacore 3000), antibody captured, antigen in solution, 25 °C
Method: as §1

Binder | Kd (human IL-1α [1]) | koff (human IL-1α [1]) | kon (human IL-1α [1]) | EC50 (human IL-1α [2]) | Potency on cyno IL-1α (pM); inhibition of IL-1α induced hIL-8 production by MRC-5 cells (cynomolgus IL-1α [3]) | Potency on hIL-1α (pM); inhibition of IL-1α induced hIL-8 production by MRC-5 cells (human IL-1α [4]) | Kd (cynomolgus IL-1α [5]) | koff (cynomolgus IL-1α [5]) | kon (cynomolgus IL-1α [5])
3D12.6 (antibody, V domains shown, Full-length humanized antibody; VH is fused to a human IgG1 constant region with L234A and L235A (EU numbering); also called VH H3D12VH.1A / VL H3D12VK.1C; VH3D12.6) VH: EIQLVQSGSELKKPGASVKVSCKASGYTFTNYGMNWVRQAPGQDLERMAWINTYTGESTYADDFKGRFVFSLDTSVSTAYLQISSLKAEDTAVYFCARGIYYYGSSYAMDYWGQGTTVTVSS VL: DIQMTQSPSSLSASVGDRVTITCRASQDISNCLNWYQQKPGKTPKLLIYYTSRLHSGVPSRFSGSGSGTDYTFTISSLQPEDIATYFCQQGKTLPYAFGQGTKLEIK | 1.78 nM | 0.00206 s⁻¹ | 1.16e+06 M⁻¹ s⁻¹ | – | – | – | – | – | –
3D12-372-10 (antibody, V domains shown, no constant regions are stated for this clone) VH: EIQLVQSGAEVKKPGASVKVSCKASGYTFTNYGMNWVRQAPGQGLEWMGWINTYTGESTYADDFKGRFTFTLDTSTSTAYMELSSLRSEDTAVYFCARGIYYYGSSYAMDYWGQGTTVTVSS VL: DIQMTQSPSSLSASVGDRVTITCRASQDISDMLNWYQQKPGKTPKLLIYHTSRLYSGVPSRFSGSGSGTDYTFTISSLQPEDIATYFCQQGKTLPPAFGQGTKLEIKR | – | – | – | 0.0721 nM | 49.2 pM | 49.9 pM | – | – | –
3D12-362-10 (antibody, V domains shown, no constant regions are stated for these clones; The humanized parents used human IgG1 with L234A/L235A and human kappa) VH: EVQLVQSGAEVKKPGVSVKVSCKASGYTFTTYGMHWVRQAPGQGLEWMGWINTYTGESTYADDFQGRVTFTLDTSTSTAYMELSSLRSEDTAVYFCARGIYYYGSSYAMNYWGQGTTVTVSS VL: DIQMTQSPSSLSASVGDRVTITCRASQDISNCLNWYQQKPGKTPKLLIYYTSRLHSGVPSRFSGSGSGTDYTFTISSLQPEDIATYFCQQGKTLPYAFGQGTKLEIKR | 0.0528 nM | 8.38e-05 s⁻¹ | 1.59e+06 M⁻¹ s⁻¹ | 0.0196 nM | 6.2 pM | 4.8 pM | 0.0135 nM | 2.19e-05 s⁻¹ | 1.63e+06 M⁻¹ s⁻¹
3D12-362-10/372-10 (antibody, V domains shown) VH: EVQLVQSGAEVKKPGVSVKVSCKASGYTFTTYGMHWVRQAPGQGLEWMGWINTYTGESTYADDFQGRVTFTLDTSTSTAYMELSSLRSEDTAVYFCARGIYYYGSSYAMNYWGQGTTVTVSS VL: DIQMTQSPSSLSASVGDRVTITCRASQDISDMLNWYQQKPGKTPKLLIYHTSRLYSGVPSRFSGSGSGTDYTFTISSLQPEDIATYFCQQGKTLPPAFGQGTKLEIKR | – | – | – | 0.133 nM | 4.9 pM | 29.3 pM | – | – | –

Next, values leading:

Kd (human IL-1α [1]) | koff (human IL-1α [1]) | kon (human IL-1α [1]) | EC50 (human IL-1α [2]) | Potency on cyno IL-1α (pM); inhibition of IL-1α induced hIL-8 production by MRC-5 cells (cynomolgus IL-1α [3]) | Potency on hIL-1α (pM); inhibition of IL-1α induced hIL-8 production by MRC-5 cells (human IL-1α [4]) | Kd (cynomolgus IL-1α [5]) | koff (cynomolgus IL-1α [5]) | kon (cynomolgus IL-1α [5]) | Binder
0.665 nM | 0.00108 s⁻¹ | 1.64e+06 M⁻¹ s⁻¹ | – | – | – | – | – | – | 3D12.11 (antibody, V domains shown, Full-length humanized antibody; VH is fused to a human IgG1 constant region with L234A and L235A (EU numbering); also called VH H3D12VH.2A / VL H3D12VK.1C; VH3D12.11) VH: EIQLVQSGAEVKKPGASVKVSCKASGYTFTNYGMNWVRQAPGQDLERMAWINTYTGESTYADDFKGRFTFTLDTSTSTAYMELSSLRSEDTAVYFCARGIYYYGSSYAMDYWGQGTTVTVSS VL: DIQMTQSPSSLSASVGDRVTITCRASQDISNCLNWYQQKPGKTPKLLIYYTSRLHSGVPSRFSGSGSGTDYTFTISSLQPEDIATYFCQQGKTLPYAFGQGTKLEIK
– | – | – | 0.0742 nM | – | 38.6 pM | – | – | – | 3D12-372-15 (antibody, V domains shown, no constant regions are stated for this clone) VH: EIQLVQSGAEVKKPGASVKVSCKASGYTFTNYGMNWVRQAPGQDLEWMGWINTYTGESTYADDFKGRFTFTLDTSTSTAYMELSSLRSEDTAVYFCARGIYYYGSSYAMDYWGQGTTVTVSS VL: DIQMTQSPSSLSASVGDRVTITCRASQDISNMLNWYQQKPGKTPKLLIYYTSRLYPGVPSRFSGSGSGTDYTFTISSLQPEDIATYFCQQGKTLPYAFGQGTKLEIKR
